Source: patent US20160215055A1 (PROMIS NEUROSCIENCES, published 2016)
Ends that are not written are not given here.

Target: T1, FasR epitope peptide LHHDGQFCH (human FasR residues 52-60) (human, also: coupled to BSA, linkage not given here)
T1 construct: Coated as BSA-peptide at 100 ng/well; The immunogens were KLH-Cys-X and OVA-Cys-X; also called BSA-specific peptide
T1 peptide: LHHDGQFCH
Test: ELISA, BSA-peptide coated on plates

B1: AMF-3a-118 (antibody, V domains shown)
VH: QSVEESGGRLVTPGTPLTLTCKASGFSLSDSRVSWVRQAPGKGLEWIGIVGIGWNIYHANWAKGRFTISKTSSTTVDLKITSPTVEDTATYFCARGLGGGTVIWGPGTLVTVSL
VL: AQVLTQTPASVSAAVGGTVTISCQSSESVYKNNYLSWFQQKPGQPPKLLIYEASKLASGVSTRFKGSGSGTQFTLTISGVQCDDAATYYCLGEFSCYSGDCGTFGGGTAVVVKG
notes: Recombinant rabbit monoclonal IgG (RabMAb) expressed in HEK-293-6E cells
binding result: binds
